Measured values taken from paper PMC13572001, “Sequence-based artificial intelligence-guided inhibitory peptides to counteract AAV neutralizing antibodies in gene therapy” (Molecular Therapy Advances, 2026).

Assay: Safety assessment after i.p. peptide mixture in mice
Conditions: positive control, same conditions, day 7
Method: To assess potential immunogenicity following peptide administration, we performed enzyme-linked immunosorbent assays (ELISA) to measure peptide-specific IgG responses.
(E) Detection of peptide-specific IgG in plasma by ELISA following peptide or control antigen administration.
Mice were injected (i.p.) with human-derived or viral-derived peptide mixtures, or OVA protein (InvivoGen #vac-pova). Plasma was collected at 24 h for cytokine analysis (BD #552364) and at day 7 for peptide- or OVA-specific antibody detection via direct ELISA.

B1: OVA: OVA protein (InvivoGen #vac-pova), positive control (protein, UniProt P01012 2-386, looked up)
Ovalbumin: GSIGAASMEFCFDVFKELKVHHANENIFYCPIAIMSALAMVYLGAKDSTRTQINKVVRFDKLPGFGDSIEAQCGTSVNVHSSLRDILNQITKPNDVYSFSLASRLYAEERYPILPEYLQCVKELYRGGLEPINFQTAADQARELINSWVESQTNGIIRNVLQPSSVDSQTAMVLVNAIVFKGLWEKAFKDEDTQAMPFRVTEQESKPVQMMYQIGLFRVASMASEKMKILELPFASGTMSMLVLLPDEVSGLEQLESIINFEKLTEWTSSNVMEERKIKVYLPRMKMEEKYNLTSVLMAMGITDVFSSSANLSGISSAESLKISQAVHAAHAEINEAGREVVGSAEAGVDAASVSEEFRADHPFLFCIKHIATNAVLFFGRCVSP
OVA-specific antibody response (direct ELISA): robust antibody response
